In one data set the test system is mir-675. Particulars: published gene expression studies; cited from earlier work.
Data set [1] has as its system DUX4 ORF (RenLuc-DUX4 ORF). Kind of data set: Dual-luciferase assay, RenLuc-DUX4 ORF reporter co-transfected with miDUX4 plasmids in HEK293 cells. The format is cell-based, human. Particulars: HEK293, 24 h; for reduction of Renilla luciferase activity: DUX4:mi405 molar ratio 2 to 1, normalized to U6.miGFP. The protocol:
Dual Luciferase Assay. (See also FIGS. 1A, 3A-B, 4A-B, 5B, and 16B-C.) This assay was performed as previously described by Wallace et al. (Mol. Ther. Methods Clin. Dev. 8: 121-30 (2018)) and following the dual-luciferase reporter assay system (Promega) protocol with some modifications. All plasmid constructs had the psiCheck2 dual luciferase reporter plasmid (Promega) as backbone that contains separate Renilla and Firefly luciferase genes, where the former contains the various target sequences used in the experiments of the disclosure, and the latter serves as a transfection normalizer (control). All DUX4 and control sequences were cloned downstream of the Renilla luciferase stop codon, serving as a 3′UTR. HEK293 cells were pre-plated 24h before transfection. Cells were then co-transfected with the luciferase DUX4 reporter and individual microRNA expression plasmids in an increasing luciferase DUX4 reporter:miRNA molar ratio using Lipofectamine 2000 (Invitrogen). Luciferase activity was measured 24h or 48h after transfection. DUX4 gene silencing was determined as previously described [Wallace et al., Mol. Ther. Methods Clin. Dev. 8: 121-30 (2018)]. Triplicate data were averaged per experiment, and individual experiments were performed 3 times. Results were reported as the average ratio of Renilla to Firefly luciferase activity±SEM for all combined experiments.
Accordingly, two new mi405 constructs, i.e., mi405F and mi405NF, were designed. […] To assess the inhibition efficiency of the three mi405 constructs, a dual-luciferase assay and western blot analysis, similar to what was described for mir-675, were carried out. In the dual-luciferase assay, U6.mi405, U6.mi405F, or U6.mi405NF was co-transfected into HEK293 cells along with the RenLuc-DUX4 ORF (a construct expressing the open reading frame of DUX4 as a 3′UTR sequence of Renilla Luciferase). 24 h after transfection, U6.mi405, U6.mi405F, and U6.mi405NF reduced the relative Renilla luciferase activity by 85±1%, 89±1%, and 66±1% (P<0.0001, ANOVA, N=3), respectively, when tested against the RenLuc-DUX4 ORF construct.

A further data set concerns mi405 mature sequence. Kind of data set: QPCR of mature mi405 (standard TaqMan cDNA synthesis) in HEK293 cells. The format is cell-based, human. Particulars: 24 h after transfection. The method, then:
TaqMan Gene Expression Assay. QRT-PCR was carried out to quantify the expression of pri-mir-675, mir-675-5p and mi405 using TaqMan probes (ThermoFisher Scientific). Experiments were started by eliminating genomic DNA from the RNA preparations, and then cDNA was generated using the High-Capacity cDNA Reverse Transcription Kit (Applied Biosystems) following manufacturer's instructions. Within the same cDNA reaction, 1×RT random hexamer primers were used to generate the cDNA for RPL13A, used as a reference gene, and for pri-mir-675. To generate the cDNA for mir-675, the RT mir-675 reverse primer provided by ThermoFisher Scientific was used. For mi405, the mi405 qPCR protocol was done as it was previously described [Wallace et al., Mol. Ther. Methods Clin. Dev. 8: 121-30 (2018)]. To quantify mir-675 and mi405 levels, RNA was extracted using the total RNA protocol for the mirVana miRNA Isolation Kit (Ambion) from HEK293 cells. cDNA was generated using the High-Capacity cDNA Reverse Transcription Kit (Applied Biosystems) using a mix of random hexamer primers and specific reverse primer for pri-mir-675 and mir-675-5p. For mi405, 200 nM of the stem-loop forming primer (5′-[…]-3′) (SEQ ID NO: 144) was also used for the RT step. A custom TaqMan assay (Applied Biosystems) including 1.5 μM of Forward primer (5′-[…]-3′) (SEQ ID NO: 145), 0.7 μM of Reverse primer (5′-GTGCAGGGTCCGAGGT-3′) (SEQ ID NO: 146), and 0.2 μM of mi405 probe (5′-6FAM-ATACGACGTCCAGGAT-3′) (SEQ ID NO: 147) was then run using the CFX Connect Real Time system apparatus (Bio-Rad). RPL13A (Mm02526700_g1; Applied Biosystems) served as the reference gene. The TaqMan gene expression assay consisted of using the TaqMan Gene Expression Master mix and TaqMan probes purchased from ThermoFisher Scientific. 1× of probe was mixed with 1× of the TaqMan Gene Expression Master mix (ThermoFisher Scientific), and with 20 ng of cDNA. The mir-675- and mi405-specific primers and probes were designed to quantify only the mir-675-5p and mi405 mature sequence (see TaqMan Gene Expression Master mix protocol).
Apart from the effect on the inhibition efficiency of mi405, the effect of the flanking sequences on the expression of the miRNA also was tested. Therefore, the expression of the processed mature mi405 sequences was quantified using the standard and advanced TaqMan cDNA synthesis reaction. In the former reaction, a reverse primer detects the mature mi405 sequence following a stem-loop primer-based small RNA detection principle (ThermoFisher Scientific) (Jung et al., RNA (2013) 19: 1-10). The amplification and quantification steps were then performed using a standard TaqMan probe specific to mi405 that base pairs at the junction between the mi405 mature sequence and the reverse primer sequence (FIG. 6A). […] In the TaqMan advanced cDNA synthesis reaction, the mature sequence is extended through ligation of an adaptor sequence at the 5′ end and through the enzymatic addition of a polyA tail at the 3′ end of the mature mi405 sequence. The amplification and quantification steps were then performed using a TaqMan advanced probe specific to mi405 that normally base pairs with the 3′ end of the mature miRNA and with part of the adaptor sequence. Here, an additional TaqMan advanced probe (embedded probe) that only base pairs with the mature sequence of mi405 (FIG. 6B) was used. As a result, following TaqMan advanced cDNA synthesis reaction, droplet digital PCR (ddPCR) was performed to quantify mi405, mi405F, mi405B, mi405C, mi405G and mi405H expression levels. For this, TaqMan advanced embedded and overlapped mi405 probes (FIG. 6B) were used.
In general terms: In qPCR the cycle at which signal appears reflects the starting amount.

Data set [2] deals with DUX4-FL (DUX4 ORF + 3'UTR, RenLuc-DUX4-FL). Kind of data set: Dual-luciferase assay, RenLuc-DUX4-FL reporter co-transfected with miRNA plasmids in HEK293 cells. Format: cell-based, human. As to conditions: positive control, molar ratio not stated, 48 h. The text has this:
FIG. 1A. Dual-luciferase assay to test the ability of U6.mir-675 to target DUX4. Shown here is the mir-675 expression plasmid used in this study. In this construct, the RNA polymerase III U6 promoter (U6p) controls the expression of mir-675. A terminal signal formed of a stretch of six T nucleotides allows the termination of transcription. On the right, the secondary structure of the mir-675 along with its 5′ and 3′ end flanking sequences (Boxed) is shown. At the 5′ end, the flanking sequence is of 40 nucleotides long and at the 3′ end, the flanking sequence is of 47 nucleotides long starting from the nucleotide at position 114. U6.mir-675 was tested to target DUX4 using the dual-luciferase assay. To do this, DUX4 was cloned in the RenLuc-DUX4-FL expression plasmid (FIG. 1A), i.e., DUX4-FL (DUX4 ORF without V5 tag+3′UTR) was PCR amplified using CMV.DUX4-FLΔV5 as template with the following primers: forward: 5′ […] 3′ (SEQ ID NO: 125), reverse: 5′ […] 3′ (SEQ ID NO: 126). The PCR product was then cloned into a previously designed RenLuc SD5 mutant plasmid using XhoI/SpeI restriction sites and the RenLuc.SD5 mutant-DUX4 3′UTR plasmid backbone. The Renilla luciferase gene has a splicing donor mutation (*SID5) that prevents the alternative splicing of the DUX4-FL mRNA (Ansseau et al. (2015) PLoS One, 10, e0118813). The dual-luciferase assay was performed by co-transfecting the RenLuc-DUX4-FL and U6.mir-675 expression plasmids into the human embryonic kidney HEK293 cells. 48 hours after transfection, both the Renilla and Firefly luciferase activities were measured. The latter was used to normalize for Renilla luciferase activity. The non-targeting RenLuc control backbone plasmid (RenLuc) was co-transfected with U6.mir-675 and the RenLuc-DUX4-FL co-transfected with U6.milacZ as negative control reactions. In the other reactions, mir-675 reduced the relative Renilla luciferase activity by 24±3% (P<0.0001, ANOVA, N=3), 28±2% (P<0.0001, ANOVA, N=3) and 33±3% (P<0.0001, ANOVA, N=3) at a molarity ratio U6.mir-675: RenLuc-DUX4-FL (n:n) of 10 to 1, 20 to 1 and 40 to 1, respectively. All readings were normalized to the U6.milacZ (negative control). Six replicate data were averaged per experiment and individual experiments were performed in triplicate (N=3). Results were reported as the average relative Renilla luciferase activity±SEM for all combined experiments. […] A representative western blot gel and the quantification results of three independent western blot replicates (N=3) performed on 15 μg of total protein extracts collected from HEK293 cells 24 hours after co-transfection with the AAV.CMV.DUX4-FL and the U6.mir-675 or the human long non-coding H19 expression plasmid (CMV.H19) is shown here. […]

A further data set has as its system DUX4 protein. Kind of data set: Western blot of V5-tagged DUX4 protein in co-transfected HEK293 cells. Format: cell-based, human. Particulars: 1:4 DUX4:mi405 molar ratio; HEK293; 24 h; normalized to miGFP; N=2.

In the case of estrogen, the mir-675 expression result in the data set on mir-675 is “mir-675 was induced”.
For the molecule bleomycin, the mir-675 expression entry in the data set on mir-675 is listed as “upregulated mir-675 expression”.

B1: U6.mi405E: mi405 construct with altered flanking sequences (nucleic acid)
DNA: ACGCCGCCATCTCTAGGCCCGCGCCGGCCCCCTCGCACAGACTTGTGGGAGAAGCTCGGCTACTCCCCTGCCCCGGTTAATTTGCATATAATATTTCCTAGTAACTATAGAGGCTTAATGTGCGATAAAAGACAGATAATCTGTTCTTTTTAATACTAGCTACATTTTACATGATAGGCTTGGATTTCTATAAGAGATACAAATACTAAATTATTATTTTAAAAAACAGCACAAAAGGAAACTCACCCTAACTGTAAAGTAATTGTGTGTTTTGAGACTATAAATATCCCTTGGAGAAAAGCCTTGTTTGACTCGAGTGAGCGATCCAGGATTCAGATCTGGTTTCTGTAAAGCCACAGATGGGAAACCAGATCTGAATCCTGGACTGCCTACTAGAGCGCACGCCAGTTTTTT
Consider B1, for which, in data set [1], the “reduction of Renilla luciferase activity” value amounted to 73±1%. In addition, the “levels of mature mi405 sequence compared to U6.mi405” value with mi405 mature sequence is “greater or higher with the difference not being statistically significant”.

B2: U6.mi405: original artificially designed miDUX4 (mi405) U6 expression plasmid, Wallace et al. (nucleic acid)
DNA: ACGCCGCCATCTCTAGGCCCGCGCCGGCCCCCTCGCACAGACTTGTGGGAGAAGCTCGGCTACTCCCCTGCCCCGGTTAATTTGCATATAATATTTCCTAGTAACTATAGAGGCTTAATGTGCGATAAAAGACAGATAATCTGTTCTTTTTAATACTAGCTACATTTTACATGATAGGCTTGGATTTCTATAAGAGATACAAATACTAAATTATTATTTTAAAAAACAGCACAAAAGGAAACTCACCCTAACTGTAAAGTAATTGTGTGTTTTGAGACTATAAATATCCCTTGGAGAAAAGCCTTGTTTGCGTTTAGTGAACCGTCAGATGGTACCGTTTAAACTCGAGTGAGCGATCCAGGATTCAGATCTGGTTTCTGTAAAGCCACAGATGGGAAACCAGATCTGAATCCTGGACTGCCTACTAGAGCGGCCGCCACAGCGGGGAGATCCAGACATGATAAGATACATTTTTT
Take B2: the “reduction of relative Renilla luciferase activity” value in data set [2] was determined as 80±2%; in data set [1] (1:4 DUX4:mi405 molar ratio, normalized to miGFP) it was 85±1%. Moreover, the “reduction of DUX4 protein levels” value in the data set with DUX4 protein is on record as 79±1%. In addition, the “reduction of Renilla luciferase activity” value in data set [1] was found to be 62±2%.
